{"source": "the nanobody polyreactivity screen of Harvey et al. (2022)"}
{"experiment": "yeast display, Sf9 membrane polyspecificity reagent, FACS + sequencing; frameworks hold sequencing errors", "how_it_was_run": "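A synthetic nanobody library was expressed on Saccharomyces cerevisiae BJ5465 by galactose induction for 36–48 hours. The library was stained for 1 hour at 4 °C with 10% biotinylated, detergent-solubilized Sf9 membrane reagent and enriched with streptavidin microbeads before FACS. Low and high (top ~1%) gates were set on anti-HA fluorescence for expression and streptavidin fluorescence for reagent binding, and each polyreactivity label reflects the gate of origin.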"}
{"sequence": "QVQLVESGGGLVQAGGSLRLSCAASGSIFRPKAMGWYRQAPGKERELVAAINTSDDSTYYADSVKGRFTISRDNAKNSVYLQMNSLKPEDTAVYYCAAEYYAYPYGDYYDYWGQGTQVSVSS", "polyreactivity (PSR sort gate)": "low polyreactivity"}
{"sequence": "QVQLVETGGGLVQAGGSLRLSCAASGRTFKFYAMGWYRQAPGKEREFVAVINRSGVNTHYADSVKVRFTISRDNAKNTVYLQMNSLKPEDTAVYYCAKYVYPLDHVAGYDYWGQGTQVTVSS", "polyreactivity (PSR sort gate)": "low polyreactivity"}
{"sequence": "QVQLVESGGGLVQAGGSLPLSCAASGFNFRSYAMGWYRQAPGTERELVAAISSGGSTYYADSVKGRFTISRDNAKNTVYLQMNSLKPEDTAVYYCGASRYYGYGHWGQGTQVTVSS", "polyreactivity (PSR sort gate)": "high polyreactivity"}
{"sequence": "QDQLVESGGGLVQAGGTLRLSCAASGYTFDTYALGWYRQAPGKERELVAAISYTGGSTYYADSVKGRFTISRDNAKNTVYLQMNSLKPEDTAVYYCAADFNGYPGGDLYVGYDYWGLGTQVTVSS", "polyreactivity (PSR sort gate)": "low polyreactivity"}
{"sequence": "QVQHVESGGGLVQAGGSLRLSCAASGSTFGRYGMGWYRQAPGTERELVAAISRGGGTNYADSVKGRFTISRDNAKKTVYLQMNSLKPEDTAVYYCNARWYYALYDYWGQGTQVTVSS", "polyreactivity (PSR sort gate)": "low polyreactivity"}
{"sequence": "QVQLVESGGGLVQAGGSLRLSCAASGSIFGGYTMGWYRQAPGKERELVAAISARGGNTYYADSVKGRFTISRDNAKNTVYLQMNSLKPEDTSVYYCAKVRYTQSYRGYGFWGQGTQVTVSS", "polyreactivity (PSR sort gate)": "high polyreactivity"}
{"sequence": "QVQLLESGGGLVQAGGSLRLSCAASGRTFRSYVMVWYRQAPGKERELVAAISRSGGSTYYADSVKGRFTISRDNAKNTVYLQMNSLKPEDTAVYYCATKRVLTGYDSWGQGTQVTVSS", "polyreactivity (PSR sort gate)": "high polyreactivity"}
{"sequence": "QVQLVESGGGLVQAGGSLRLSCAASGSTFYGNAMGWSRQAPGKERELVAAIRWRGGRTYYADSVKGRFTISRDNAKNTVYLQMNSLKPEDTAVYYCNALPGVSHTQYDRVGYWGQGTQVTVSS", "polyreactivity (PSR sort gate)": "high polyreactivity"}
{"sequence": "QVQLVESGGGLVQAGGSLRLSCAASGSIFGSYTMGWYRQAPGKEREFVAAINFSGGRTYYADSVKGRFTISRDNAKNTVYLQMNSLKPEDTAVYYCARRWRQARYDYWGQGTQVTVSS", "polyreactivity (PSR sort gate)": "high polyreactivity"}
{"sequence": "QVQLVESGGGLVQAGGSLRLICAASGSTFTLYAMGWYRQAPGKERELVAAISGIGDSTYYADSVKGRFTISRDNAKNTVYLQMNSLKPEDTAVYYCAADGEYRYDWEYESWGQGTQVTVSS", "polyreactivity (PSR sort gate)": "low polyreactivity"}
{"sequence": "QVQLVESGGGLVQAGGSLRLSCAASGRTFFYNAMGWYRQAPGKERELVAAISYSGGSTYYADSVKGRFTISRDNAKNTVYLQMNSLKPEDTAVYYCAAYHYARYRTSAGNYYWGQGTQVTVSS", "polyreactivity (PSR sort gate)": "high polyreactivity"}
{"sequence": "QVQLVESGGGLVQAGGSLRLSCAASGRTFRGNAMGWYRQAPGKERELVAAINWGVGSTYYADSVKGRFTISRDNAKNTVYLQMNSLKPEDTAVYYCATRSYRGRDGFGYWGQGTQVTVSS", "polyreactivity (PSR sort gate)": "high polyreactivity"}
{"sequence": "QVQLVESGGGLVQAGGSLRLSCAASGRIFHVNAMGWYRQAPGKEMDLVAAISTSGGRTYYADSVKGRFTISRDNAKNTVYLQMNSLKPEDTAVYYCAAVSRAPGLRYDYWGQGTQVTVSS", "polyreactivity (PSR sort gate)": "high polyreactivity"}
{"sequence": "QVQLVESGGGLVQAGGSLRLSCAASGSIFSYYAMGWYRQAPGKERELVAAITTSGGSTYYADSVKGRFTISRDNAKNTVYLQMNSLKPEDTAVYYCAVDQYDRTTAFWYWYPYYYWGQGTQVTVSS", "polyreactivity (PSR sort gate)": "low polyreactivity"}
{"sequence": "QVQLVESGGGLVQAGGSLRLSCAASGFTYYWNAMGWYRQAPGKERELVAAINWRGTSTYYADSVKGRFTISRDNAKNTVYLQMNSLKPEDTAVYYCNTYGYVEYDWGQGTQVTVSS", "polyreactivity (PSR sort gate)": "high polyreactivity"}
{"sequence": "QVQLVESGGGLVQAGGSLRLSCAASGSILWLYAMGWYRQAPGKERELVAAISGSGRTNYADSVKGRFTISRDNAKNTVYLQMNSQKPEDTAVYYCARVHGTSESKYYYWGQGTQVTVSL", "polyreactivity (PSR sort gate)": "low polyreactivity"}
{"sequence": "QVQHVESGGGLVQAGVSLRLSCAASGSIFPYNAMGWYRQAPGKERELVATISSGGSTNYADSVKGRFTISRDNAKNTVYLQMNSLKPEDTAVYYCAGDVIVFYYAPNYWGDIEYGYWGQGTQVTVSS", "polyreactivity (PSR sort gate)": "low polyreactivity"}
{"sequence": "QVQLVESWGGLVQAGGSLRLSCAASGFTFTWYAMGWSRQAPGKERELLAAITSSGGSTYYADSVKGRFTISRDNAKNTVYLQMNSLKPEDTAVYYCAAKSYWSGYFVGYEYWGQGTQVTVSS", "polyreactivity (PSR sort gate)": "high polyreactivity"}
{"sequence": "QVQLEESGGGLVQAGGSLSLSCAASGRNMPYNVMAWYIQATGKEREFVAAITGSGGDTYYADSVKGRFTISRDNAKNTVYLQMNSLKPEDTAVYYCAAAPYIGCSFGQTPGSGYWGQGTQVTVSS", "polyreactivity (PSR sort gate)": "low polyreactivity"}
{"sequence": "QVQLVESGGGLVQAGGSLRLSCAASGRTFRFNAMGWYRQAPGKERELVAAISSSGDSTYYADSVKGRFTISRDNAKNTVYLQMNSLKPEDTAVYYCAVRSRTPRAYYYWGQGTQVTVSS", "polyreactivity (PSR sort gate)": "low polyreactivity"}
{"sequence": "QVQLVESGGGLVQAGGSLLLSCAASGFTFSVYAMGWYRQEPGKERELVAAINFSGGNTFYADSVKGRFTISRDYAKNTVYLQMNSLKPEDSAVYYCAAEDYKITRYVVRWYEYWGQGTQVTVSS", "polyreactivity (PSR sort gate)": "high polyreactivity"}
{"sequence": "QVQLVESGGCLVQAGGSLRLSCAASGRIFQYYTMGWYRQAPAKERELVAAITYSGGDTRYADSVKGRFTISRDNAKNTVYLQMNSLKPEDTAVYYCAADYFDQYQYGVWTYGYWGQGTQVTVSS", "polyreactivity (PSR sort gate)": "low polyreactivity"}
{"sequence": "QGQLVESGGGLVQAGGSLRLSCAASGRTFYYNGMGWYRQAPGKERELVATITNGGSTNYADSVKGRFTISRDNAKNTVYLQMNSLKPEDTAVYYCAKTLASDCYDYWGQGTQVTVSS", "polyreactivity (PSR sort gate)": "low polyreactivity"}
{"sequence": "QVQLVESGGGLVQAGGSLRLSCAASGFTFRYNAMGWYRKPPGKERELVAAITSGGNTNYADSVKGRFTISRDNAKNTVYLQMNSLKPEDTAVYYCNTAWRDYVARLGGVGYDYWGQGTQVTVSS", "polyreactivity (PSR sort gate)": "high polyreactivity"}
{"sequence": "QFQLVESGGGLVQAGGSLRLSCAASGSTSYRNAMGWYRQAPGKEREFVAAISWSGGSTYYADSVKGRFTISRDNAKNTVYLQMNSLKPEDTADYYSNADAYGTPEFTSYAVRYDYWGQGTQVTVSS", "polyreactivity (PSR sort gate)": "low polyreactivity"}
{"sequence": "QVQLVESGGGLVQAGGSLRLSCAASGLIFYDNMGWYRQAPGKERELVAAISSSGGSTNYADSVKGRFTISRDNAKNTVYLQMNSLKPEDTAVYYCAADSYPAYLGFVGFDYWGQGTQVTVSS", "polyreactivity (PSR sort gate)": "low polyreactivity"}
{"sequence": "QVQLVESGGGLVQAGGSLRFSCAASGRTFTIYAMGWYRQAPGKERELVAAISWSEGSTYYADSVKGRFTISRDNAKNTVYLQMNSLKPEDTAVYYCAREVYGDASAPDMDYWGQGTQVTVSS", "polyreactivity (PSR sort gate)": "low polyreactivity"}
{"sequence": "QVQLVDSGGGLVQAGGSLRLSCAASGRTFQFYVMGWYRQAPGKERELVASIRSGGSTNYADSVKGRFTISRDNAKNTVYLQMNSLKPEDTAVYYCATESYPADQDIPGSDYWGQGTQVTVSS", "polyreactivity (PSR sort gate)": "low polyreactivity"}
{"sequence": "QVQLVESGGGLVQAGGSLRLSCADCGSIFSSNAKGWYRQEPGKERELVAAISRSACSTYYADSVKGRFTISRDIAKNTVYLQMNSLKQEDTAVYYCNGVTRLGTYDYWGQGSQVTVSS", "polyreactivity (PSR sort gate)": "high polyreactivity"}
{"sequence": "QVQLVESGGGLVQAGGSLRLSCAASGSIFYLYAMGWYRQAPGKERELVATMSSSGGSTYYADSVKGRFTISRDNAKNTVYLQMISLKPEDTAVYYCNADYIYYGTTYEYWGQGTQVTVSS", "polyreactivity (PSR sort gate)": "low polyreactivity"}
{"sequence": "QVQIVESGGGLVQAGGSLRLICAASGFTFTYNAMGWYRQAPWKERELVADIDSDGSTTYADSVKGRFTISRDNAKNTVYLQMNSLKPEDTAVYYCAADYWDYSVWRWYEYWGQGTQVTVSS", "polyreactivity (PSR sort gate)": "high polyreactivity"}
{"sequence": "QVQLVESGGGLVQAGGSLRISCAASGSTLVGKVMGWYRQAPGKERELVADITLSGGSTYYSDSVKGRFTISRDNAKNTVYLQMNSLKPEDTAVYYCNDVFFNYLLEYDYWGQGTQVTVSS", "polyreactivity (PSR sort gate)": "high polyreactivity"}
{"sequence": "QVQLVESGGGLVQAGGSLRLSCAASGFIFSWYAMGWYRQAPGKERELVAAITSGGRTNYADSVKGRFTISRDNAKNTVYLQMNSLKPEDTAVYYCAAAFYPFWPRYTSDYWGQGTQVTVSS", "polyreactivity (PSR sort gate)": "high polyreactivity"}
{"sequence": "QVQRVESGGGLVQAGGSLGLSCAASGFTFIKYAMGWYRQAPGKEREFVASITYRGGSTYYADSVKGRLTISRDNAKNTVYLQMNSLKPEDTAVYYCAAGGPGRRYRVDYWGQGTQVTVSS", "polyreactivity (PSR sort gate)": "high polyreactivity"}
{"sequence": "QVQLVESGGGLVQAGGSLRLSCAASGRIFPENAMGWYRQAPGTERELVAAISKNGGRTYYADSVKGRFTISRDNAKNTVYLQMNSLKPEDTAVYYCNRRVQARRYRYDYWGQGTQVTVSS", "polyreactivity (PSR sort gate)": "high polyreactivity"}
{"sequence": "QVQLVESRGGLVQAGGSLRLSCAASGSTFLNYAMGWYRQAPGKERELVAAISGSTTRTYYAESVKGRFTISRDNAKNTVYLQMNSLKPEDTAVYYCAATRGRGGRDDYWGQGSQVTVSS", "polyreactivity (PSR sort gate)": "high polyreactivity"}
{"sequence": "QVQHVESGGGLVQAGGSLRLSCAASGSTFHLYAIGWYRQAPGKEREFVAAIRGRGGNTYADSVKGRFTISRDNAKNTVYLQMNSVKPEDTAVYSCAAPLLRDLRSPYSYNYWGQGTQVTVSS", "polyreactivity (PSR sort gate)": "low polyreactivity"}
{"sequence": "QVQLVESGGGLVQAGGSLRLSCAASGRIFVRNALGWYRQAPGKERELVAGINSGGGTTYADSVKGRFTISRDNAKNTVYLQMNSLKPEDTAVYYCAAGYWTRYWSWVDYWGQGTQVTVSS", "polyreactivity (PSR sort gate)": "high polyreactivity"}
{"sequence": "QVQLVESGGGLVQAGGSLRLSCAASGRIFTNAMGWYTQAPGKQRELVAAISGGSNTYYADSVKGRFTISRDNANNTVYLQMNSLKPEDTAVYYCNTDDQWWDGGYDYWGQGTQVTVSS", "polyreactivity (PSR sort gate)": "low polyreactivity"}
{"sequence": "QVQLVESGGCLVQAGGSLRLSCAASGLTFIVYAMGWYRQAPGKERELVADITWSGGSTYYADSVKGRYTISRDNAKITVYLQMNSLKPVDTAVYYCNRQSAKIMDYWGQGTQVNVSS", "polyreactivity (PSR sort gate)": "low polyreactivity"}
{"sequence": "QVQLVESGGGLVQAGGSLRLSCAASGRIFKYNAMGWYRPAPGKERELVAAISGTGGSTYYADSVKGRFTISRDNAKNTVYLQMNSLKPEDTAVYYCNRRYYGHSTWKYDYWGQGTQVTVSS", "polyreactivity (PSR sort gate)": "high polyreactivity"}
